Reference: patent KR20160103767A (dated 2016)
One block for each binder: values may come before it.

Biological target: T1, 재조합 인간 TFPI (Recombinant human Tissue Factor Pathway Inhibitor, full-form, Cat.No.TFPI-875H, Creative Biomart) (human, UniProt P10646 29-304)
T1 sequence: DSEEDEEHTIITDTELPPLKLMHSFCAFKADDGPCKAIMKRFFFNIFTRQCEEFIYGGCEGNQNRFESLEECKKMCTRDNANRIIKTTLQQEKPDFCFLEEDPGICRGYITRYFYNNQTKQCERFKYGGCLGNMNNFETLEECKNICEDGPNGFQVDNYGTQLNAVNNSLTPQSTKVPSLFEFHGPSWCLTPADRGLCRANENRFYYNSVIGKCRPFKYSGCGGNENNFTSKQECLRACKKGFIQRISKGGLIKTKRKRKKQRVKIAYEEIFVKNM
Test: cell-based or functional assay

FXa activity assay: TFPI inhibition at 10nM antibody, relative to positive control: ~64%
FXa activity assay: TFPI inhibition at 40nM antibody, relative to positive control: 91%
TF/FVIIa/FXa complex assay: TFPI inhibition at 50nM antibody, relative to positive control (no antibody, no TFPI): ~87%
TF/FVIIa/FXa complex assay: TFPI inhibition at 100nM antibody, relative to positive control (no antibody, no TFPI): 100%
B1: 클론 T308 (anti-TFPI chimeric antibody) (antibody, V domains shown)
VH: EVKLVESGGGLVKPGGSLKLSCAASGFTFSNYPMSWVRQTPEKRLEWVATISNSGSYTYYPDSVKGRFTISRDNAKNTLYLQMNSLRSEDTAMYYCARQVYGNYEDFDYWGQGTTLTVSS
VL: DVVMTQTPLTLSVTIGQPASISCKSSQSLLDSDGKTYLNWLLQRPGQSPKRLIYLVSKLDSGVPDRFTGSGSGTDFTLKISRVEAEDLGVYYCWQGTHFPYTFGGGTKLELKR

FXa activity assay: TFPI inhibition (10nM comparison), relative to positive control (mAb2021): 77%
FXa activity assay: TFPI inhibition at 10nM antibody, relative to positive control: 72%
FXa activity assay: TFPI inhibition at 10nM antibody, relative to positive control (mAb2021): 78.4%
FXa activity assay: TFPI inhibition at 40nM antibody, relative to positive control: 89%
TF/FVIIa/FXa complex assay: TFPI inhibition at 50nM antibody, relative to positive control (no antibody, no TFPI): 100%
TF/FVIIa/FXa complex assay: TFPI inhibition at 100nM antibody, relative to positive control (no antibody, no TFPI): 100%
TF/FVIIa/FXa complex assay: TFPI inhibition, relative to positive control (no antibody, no TFPI): 100%
B2: 클론 T417 (anti-TFPI chimeric antibody) (antibody, V domains shown)
VH: EVHLVESGGDLVKPGGSLKLSCAASGFTFSSYAMSWVRQTPDKRLEWVATITTGGSYTYYPDSVKGRFTISRDNAKNTLYLQMSSLKSEDTAMYYCARQDGNFLMDYWGQGTTVTVSS
VL: not shown
